Measurements: US20240124563A1

Columns and labels:
[1] = target: monkey MSLN full-length protein on HEK293T cells (monkey); assay: FACS, HEK293T-monkey MSLN cells
[2] = target: human MSLN-R1-his protein (human) (UniProt Q13421); assay: ELISA, coated antigen, 100 nM antibody
[3] = target: monkey MSLN full-length protein on HEK293T cells (monkey); assay: FACS, HEK293T-monkey-MSLN cells, antibody 4 nM
[4] = target: monkey MSLN full-length protein on HEK293T cells (monkey); assay: FACS, HEK293T-monkey-MSLN cells, antibody 20 nM
[5] = target: monkey MSLN full-length protein on HEK293T cells (monkey); assay: FACS, HEK293T-monkey-MSLN cells, antibody 0.8 nM
[6] = target: monkey MSLN full-length protein on HEK293T cells (monkey); assay: FACS, HEK293T-monkey-MSLN cells, antibody 100 nM
[7] = target: monkey MSLN full-length protein on HEK293T cells (monkey); assay: FACS, HEK293T-monkey-MSLN cells, antibody 0.16 nM
[8] = target: monkey MSLN full-length protein on HEK293T cells (monkey); assay: FACS, HEK293T-monkey-MSLN cells, antibody 0.032 nM
[9] = target: monkey MSLN full-length protein on HEK293T cells (monkey); assay: FACS, HEK293T-monkey-MSLN cells, antibody 0.0064 nM
[10] = target: monkey MSLN full-length protein on HEK293T cells (monkey); assay: FACS, HEK293T-monkey-MSLN cells, antibody 0.00128 nM
[11] = target: human MSLN-R3-rFc protein (human) (UniProt Q13421); assay: ELISA, antibody 4 nM
[12] = target: human MSLN-R3-rFc protein (human) (UniProt Q13421); assay: ELISA, antibody 1 nM
[13] = target: human MSLN-R3-rFc protein (human) (UniProt Q13421); assay: ELISA, antibody 20 nM
[14] = target: human MSLN-R3-rFc protein (human) (UniProt Q13421); assay: ELISA, antibody 100 nM
[15] = target: human MSLN-R3-rFc protein (human) (UniProt Q13421); assay: ELISA, antibody 0.0064 nM
[16] = target: human MSLN-FL-his protein (human) (UniProt Q13421); assay: ELISA, coated antigen, 20 nM antibody
[17] = target: human MSLN-R2-his protein (human) (UniProt Q13421); assay: ELISA, coated antigen, 100 nM antibody
[18] = target: human MSLN-FL-his protein (human) (UniProt Q13421); assay: ELISA, coated antigen, 0.2 nM antibody

human MSLN-FL-his protein (human), sequence (Q13421 other isoform, or with tags, fused parts or gaps): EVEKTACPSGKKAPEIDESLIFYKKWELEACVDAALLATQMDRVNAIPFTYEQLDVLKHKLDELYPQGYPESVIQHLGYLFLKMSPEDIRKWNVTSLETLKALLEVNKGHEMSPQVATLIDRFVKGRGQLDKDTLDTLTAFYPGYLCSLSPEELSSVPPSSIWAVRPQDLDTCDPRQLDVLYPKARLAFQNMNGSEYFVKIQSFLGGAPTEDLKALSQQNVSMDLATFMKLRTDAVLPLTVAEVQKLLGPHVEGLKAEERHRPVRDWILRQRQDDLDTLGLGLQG
human MSLN-R1-his protein (human), sequence (Q13421 other isoform, or with tags, fused parts or gaps): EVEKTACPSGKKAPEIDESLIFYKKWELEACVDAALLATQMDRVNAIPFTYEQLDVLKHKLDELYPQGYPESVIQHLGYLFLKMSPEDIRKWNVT
human MSLN-R2-his protein (human), sequence (Q13421 other isoform, or with tags, fused parts or gaps): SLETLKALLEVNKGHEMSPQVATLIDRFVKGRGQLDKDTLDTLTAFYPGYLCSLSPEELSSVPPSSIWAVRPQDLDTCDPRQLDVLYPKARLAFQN

Substance: Tab108 (YP218, scFv-hIgG1 Fc) (Fc fusion)
- EC50 [1]: 0.83 nM
- Max MFI [1]: 4240
- OD450 nm [2]: 0.12 OD450 nm

Substance: Tab131 (m912, scFv-hIgG1 Fc) (Fc fusion)
- FACS signal (MFI) [3]: 86
- FACS signal (MFI) [4]: 85
- FACS signal (MFI) [5]: 87
- FACS signal (MFI) [6]: 87
- FACS signal (MFI) [7]: 83
- FACS signal (MFI) [8]: 106
- FACS signal (MFI) [9]: 85
- FACS signal (MFI) [10]: 93

Substance: anti-human MSLN antibody (purchased from Acro, Cat. No. MSN-M30)
- OD450 nm [11]: 0.23
- OD450 nm [12]: 0.11
- OD450 nm [13]: 0.86
- OD450 nm [14]: 1.11
- OD450 nm [15]: 0.16

Substance: hIgG1 (IgG control) (antibody)
- OD450 nm [16]: 0.28 OD450 nm
- OD450 nm [2]: 0.2 OD450 nm
- OD450 nm [17]: 0.16 OD450 nm
- OD450 nm [18]: 0.24 OD450 nm
